# Data: the supplement of paper PMC5949888
# Tested on: Saccharomyces cerevisiae PS128 hsf1 delta, HSF1(1-493) fusion
# Assay: growth estimate (transactivation domain function in HSF1 fusion, heat-shock survival) (a.u. (slope of normalised read count over time)); higher = stronger growth at 37°C, i.e. more transactivation activity
# Details: library: design library
# Summary of the method: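 Designed transactivation-domain oligos were fused to truncated yeast HSF1 (amino acids 1–493) and expressed in an hsf1-deleted yeast strain. Cells were replica-plated onto –trp 5-FOA plates and incubated at 30°C or 37°C for 0, 2, 4, 6 and 8 days. Inserts were PCR-amplified and Illumina MiSeq-sequenced as six barcoded replicates from one experiment. Growth estimate is the slope of a robust linear fit over time of read counts normalised to sample totals and starting count.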
row,Sequence,growth estimate
1,TADDVYNYLFDD,0.0678
2,TGDDVYNYLFDD,-0.0152
3,TKDDVYNYLFDD,-0.238
4,TMADVYNYLFDD,0.169
5,TMDAVYNYLFDD,0.158
6,TMDDAYNYLFDD,-0.228
7,TMDDGYNYLFDD,< -0.25
8,TMDDPYNYLFDD,-0.0775
9,TMDDRYNYLFDD,-0.144
10,TMDDVGNYLFDD,< -0.25
11,TMDDVKNYLFDD,< -0.25
12,TMDDVPNYLFDD,-0.232
13,TMDDVRNYLFDD,< -0.25
14,TMDDVYAYLFDD,4.4
15,TMDDVYGYLFDD,0.586
16,TMDDVYKYLFDD,0.872
17,TMDDVYNGLFDD,< -0.25
18,TMDDVYNKLFDD,< -0.25
19,TMDDVYNPLFDD,< -0.25
20,TMDDVYNRLFDD,-0.242
21,TMDDVYNYKFDD,< -0.25
22,TMDDVYNYLADD,0.274
23,TMDDVYNYLFAD,1.32
24,TMDDVYNYLFDA,0.681
25,TMDDVYNYLFDG,0.0766
26,TMDDVYNYLFDK,-0.18

row,Sequence,growth estimate
1,TMDDVYNYLFDP,1.58
2,TMDDVYNYLFDR,-0.243
3,TMDDVYNYLFGD,1.05
4,TMDDVYNYLFKD,< -0.25
5,TMDDVYNYLFPD,1.69
6,TMDDVYNYLFRD,-0.0803
7,TMDDVYNYLGDD,-0.149
8,TMDDVYNYLKDD,< -0.25
9,TMDDVYNYLPDD,< -0.25
10,TMDDVYNYLRDD,< -0.25
11,TMDDVYNYRFDD,-0.0969
12,TMDDVYPYLFDD,0.27
13,TMDDVYRYLFDD,1.71
14,TMGDVYNYLFDD,0.113
15,TMKDVYNYLFDD,< -0.25
16,TMPDVYNYLFDD,-0.0795
17,TPDDVYNYLFDD,< -0.25
18,TRDDVYNYLFDD,-0.222
19,VAADIWEELLSEDL,1.83
20,VADAIWEELLSEDL,0.167
21,VADDAWEELLSEDL,-0.24
22,VADDGWEELLSEDL,< -0.259
23,VADDIAEELLSEDL,-0.224
24,VADDIPEELLSEDL,-0.228
25,VADDIWAELLSEDL,8.23
26,VADDIWEALLSEDL,8.8

row,Sequence,growth estimate
1,VADDIWEEALSEDL,-0.233
2,VADDIWEEKLSEDL,< -0.25
3,VADDIWEELASEDL,< -0.25
4,VADDIWEELGSEDL,-0.221
5,VADDIWEELKSEDL,-0.188
6,VADDIWEELLAEDL,2.64
7,VADDIWEELLGEDL,2.11
8,VADDIWEELLKEDL,7.64
9,VADDIWEELLPEDL,-0.022
10,VADDIWEELLREDL,10.8
11,VADDIWEELLSADL,3.11
12,VADDIWEELLSEAL,5.63
13,VADDIWEELLSEDA,-0.0522
14,VADDIWEELLSEDG,0.0334
15,VADDIWEELLSEDK,-0.0473
16,VADDIWEELLSEDL,0.661
17,VADDIWEELLSEDP,0.229
18,VADDIWEELLSEDR,0.315
19,VADDIWEELLSEGL,10.4
20,VADDIWEELLSEKL,3.04
21,VADDIWEELLSEPL,5.18
22,VADDIWEELLSERL,5.09
23,VADDIWEELLSGDL,3.96
24,VADDIWEELLSKDL,2.92
25,VADDIWEELLSPDL,0.482
26,VADDIWEELLSRDL,6.53

row,Sequence,growth estimate
1,VADDIWEELPSEDL,< -0.25
2,VADDIWEELRSEDL,-0.205
3,VADDIWEERLSEDL,< -0.25
4,VADDIWEGLLSEDL,0.676
5,VADDIWEKLLSEDL,2.03
6,VADDIWEPLLSEDL,-0.234
7,VADDIWERLLSEDL,2.04
8,VADDIWKELLSEDL,3.97
9,VADDIWPELLSEDL,0.612
10,VADDIWRELLSEDL,7.56
11,VADDKWEELLSEDL,-0.236
12,VADDPWEELLSEDL,-0.214
13,VADDRWEELLSEDL,< -0.25
14,VADGIWEELLSEDL,-0.0444
15,VADKIWEELLSEDL,-0.0109
16,VADPIWEELLSEDL,0.903
17,VADRIWEELLSEDL,-0.176
18,VAGDIWEELLSEDL,0.447
19,VAKDIWEELLSEDL,6.26
20,VAPDIWEELLSEDL,3.05
21,VARDIWEELLSEDL,2.59
22,VGDDIWEELLSEDL,1.59
23,VKDDIWEELLSEDL,-0.23
24,VRDDIWEELLSEDL,0.609
